Test results published in article PMC3965691 (Biochemistry, 2011).

T1: HI-2(1-152) (human, UniProt P41236 1-152)
T1 sequence (looked up): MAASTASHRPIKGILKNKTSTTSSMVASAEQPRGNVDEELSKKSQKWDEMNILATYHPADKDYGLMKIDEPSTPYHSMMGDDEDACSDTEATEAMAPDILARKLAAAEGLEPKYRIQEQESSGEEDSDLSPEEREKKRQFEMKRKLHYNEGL

B1: His6-HI-2 (human phosphatase inhibitor-2, wild type, full length) (natural protein, UniProt P41236 1-205, looked up)
chain: MAASTASHRPIKGILKNKTSTTSSMVASAEQPRGNVDEELSKKSQKWDEMNILATYHPADKDYGLMKIDEPSTPYHSMMGDDEDACSDTEATEAMAPDILARKLAAAEGLEPKYRIQEQESSGEEDSDLSPEEREKKRQFEMKRKLHYNEGLNIKLARQLISKDLHDDDEDEEMLETADGESMNTEESNQGSTPSDQQQNKLRSS
B2: HI-2(I68A) (natural protein, human, UniProt P41236 1-205, looked up)
chain: MAASTASHRPIKGILKNKTSTTSSMVASAEQPRGNVDEELSKKSQKWDEMNILATYHPADKDYGLMKADEPSTPYHSMMGDDEDACSDTEATEAMAPDILARKLAAAEGLEPKYRIQEQESSGEEDSDLSPEEREKKRQFEMKRKLHYNEGLNIKLARQLISKDLHDDDEDEEMLETADGESMNTEESNQGSTPSDQQQNKLRSS

Experiments:
[1] = biological target: Pin1 free of GST (thrombin-cleaved GST-Pin1) (human, UniProt Q13526 1-163); assay: SEC
HI-2(I68A) = biological target: B2; assay: pull-down
[2] = biological target: B1; assay: pull-down
HI-2(1-152) = biological target: T1, HI-2(1-152); assay: pull-down

Row | stoichiometry N [1] | binding result [2] | further results | Binder
1 | 1 I-2 per Pin1 (2:2) | – | – | B1
2 | – | – | binding result (HI-2(I68A)): binds | GST-Pin1iso (human Pin1 isomerase domain, residues 46-163, fused to GST) (domain or fragment, UniProt Q13526 46-163, looked up) KNGQGEPARVRCSHLLVKHSQSRRPSSWRQEKITRTKEEALELINGYIQKIKSGEEDFESLASQFSDCSSAKARGDLGAFSRGQMQKPFEDASFALRTGEMSGPVFTDSGIHIILRTE
3 | 1 I-2 per Pin1 (1:1) | – | – | B2
4 | – | binds | binding result (HI-2(1-152)): binds | MADEEKLPPGWEKRMSRSSGRVYYFNHITNASQWERPSGNSSSG (domain or fragment, UniProt Q13526 1-44, looked up) [GST-Pin1ww (human Pin1 WW domain, residues 1-44, fused to GST)]
5 | – | binds | – | MADEEKLPPGWEKRMSRSSGRVYYFNHITNASQWERPSGNSSSG (domain or fragment, human, UniProt Q13526 1-44, looked up, phosphoserine at 16 (PKA)) [PKA phosphorylated GST-Pin1ww]
